Reference: publication PMC8588432, “Selection and Characterization of Vimentin-Binding Aptamer Motifs for Ovarian Cancer”

Target: vimentin (human, UniProt P08670 2-466)
Assay: filter binding; Filter binding: 20 mM Tris, 150 mM NaCl, pH 8.0, 2 h, room temperature, 10 uL; flow cytometry: fixed IGROV cells, 22 C, 1 h; microscopy: 37 C, 1 h
Settings: label: 5'-biotin; predicted stem-loop

vimentin, sequence (P08670 2-466): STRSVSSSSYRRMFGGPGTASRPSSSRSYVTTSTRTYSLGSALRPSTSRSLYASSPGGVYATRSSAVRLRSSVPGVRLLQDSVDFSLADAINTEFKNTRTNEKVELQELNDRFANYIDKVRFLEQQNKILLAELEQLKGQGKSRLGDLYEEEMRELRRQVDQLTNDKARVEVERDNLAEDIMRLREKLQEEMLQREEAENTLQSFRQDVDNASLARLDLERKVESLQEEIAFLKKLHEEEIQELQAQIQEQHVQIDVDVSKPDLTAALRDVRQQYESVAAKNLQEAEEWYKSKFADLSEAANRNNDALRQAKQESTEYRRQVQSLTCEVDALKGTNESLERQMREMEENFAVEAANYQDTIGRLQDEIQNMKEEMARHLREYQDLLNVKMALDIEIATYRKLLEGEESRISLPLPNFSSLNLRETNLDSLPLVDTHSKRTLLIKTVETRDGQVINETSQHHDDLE

Binder	Kd [nM]
ACCTCTTCAAGAACATCCCTGTCACGGATCCTCTAGAGCA (XNA, monothioated phosphates 3' of adenines (shown in red, positions not in text)) [V3M2]	18.9
TAGACCCAGCTGGTCCGGAAAATAAGATGTCACGGATCCTC (XNA, monothioated phosphates 3' of adenines (shown in red, positions not in text)) [V5M2]	47.4
